# From PMC11635053, “Development of a homotrimeric PSMA radioligand based on the NOTI chelating platform” (EJNMMI Radiopharmacy and Chemistry, 2024)
# Experiments:
# [1] = system: human serum proteins; experiment: in vitro; type: in vitro ADME; conditions: male, Protein binding
# Procedure: To determine the protein bound fraction of each trimeric radiotracer, 100 μL of the radiolabeling solution of the corresponding ^68Ga-labeled conjugate were added to preheated (37 °C) 1000 μL human serum (male, AB, Sigma Aldrich, USA) in triplicates. Samples were incubated for 1 h at 37 °C. After cooling to r.t., the samples were centrifuged utilizing molecular cutoff (30 kDa) centrifuge tubes at 4 G for 5 min at 4 °C. The filters were additionally rinsed with PBS buffer (2 × 100 μL). The background subtracted activity in the filters and the filtrates were determined in a Gamma counter and the percentage of protein bound fractions were calculated.
# [2] = in vivo; set-up: species or system mice; conditions: male, NOD/SCID, mouse, iv, total radioactivity
# Procedure: The capability of [^68Ga]Ga-9 to delineate PSMA-expressing tumors in vivo was evaluated by small-animal PET imaging at 1 and 2 h p.i. For this, mice bearing LNCaP xenografts (n = 3) were injected with 1–3 MBq (250–500 pmol) [^68Ga]Ga-9 into a tail vein and subjected to micro-PET/CT imaging at 1 h post-injection (p.i.). PSMA specificity was confirmed by co-injection of 2-PMPA (1 µmol mouse^−1). […] LNCaP tumors were clearly visualized by [^68Ga]Ga-9 and only the kidneys and the bladder as the major excretory organs were visible. […] The kidney uptake was 67.86 ± 8.35% IA g^−1 (n = 3) in the normal group vs. 19.9 ± 4.43% IA g^−1 in the blocking group (n = 3). […] The blood uptake was relatively high at 1 h p.i. with 3.62 ± 0.42% IA g^−1. Uptake in the muscles was low with 0.32 ± 0.12% IA g^−1. […]
# For PET imaging studies, mice were injected with 100 µL sterile saline formulations of 250–500 pmol [^68Ga]Ga-9 (1–3 MBq) by intravenous tail-vein injection and anesthetized with isoflurane (2–4% in air). […] Image counts per second per voxel (cps voxel^−1) were calibrated to activity concentrations (Bq mL^−1) by measuring a 3.5 cm cylinder phantom filled with a known concentration of radioactivity. […]
# Competitive inhibition (blocking) studies were also performed in vivo and measured using static PET imaging to investigate the specificity of the radiotracers for PSMA. […]
# [3] = system: patient with metastatic prostate cancer; experiment: Clinical PET/CT imaging; conditions: human, in vivo
# Procedure: PET/CT was performed approximately 1, 2, and 3 h after intravenous injection of 107 MBq of [^68Ga]Ga-9 and 1 h after injection of 113 MBq [^68Ga]Ga-PSMA-11 in a patient with metastatic prostate cancer. Whole body imaging extending from vertex to mid-femur was performed in 3D-ToF mode on a Biograph mCT 40 scanner (Siemens Medical Solutions, Knoxville, TN, USA) with an extended field of view of 21.4 cm. PET acquisition time was 3 min bed position^−1. Low-dose CT acquisition was performed for attenuation correction and anatomical localization using an X-ray tube voltage of 120 kV and a modulation of the tube current (maximal tube current: 30 mA; CARE Dose 4D software Siemens Healthineers, Erlangen, Germany) followed by reconstruction with a soft tissue reconstruction kernel (Bf37) to a slice thickness of 5 mm (increment 2–4 mm). PET emission data were additionally corrected for decay, randoms and scatter and reconstructed applying an iterative 3D ordered subset expectation maximization algorithm (3 iterations; 21 subsets) withGaussian filtering to transaxial resolution of 5 mm at full width at half maximum. The matrix size was 200 × 200 mm and the reconstructed pixel size was 5.0 mm.
structure (smiles),measurement,setting,value
"O=C(O)CC[C@H](NC(=O)N[C@@H](CCCCNC(=O)[C@H](Cc1ccc2ccccc2c1)NC(=O)[C@H]1CC[C@H](CNC(=O)CCCCn2ccnc2CN2CCN(Cc3nccn3CCCCC(=O)NC[C@H]3CC[C@H](C(=O)N[C@@H](Cc4ccc5ccccc5c4)C(=O)NCCCC[C@H](NC(=O)N[C@@H](CCC(=O)O)C(=O)O)C(=O)O)CC3)CCN(Cc3nccn3CCCCC(=O)NC[C@H]3CC[C@H](C(=O)N[C@@H](Cc4ccc5ccccc5c4)C(=O)NCCCC[C@H](NC(=O)N[C@@H](CCC(=O)O)C(=O)O)C(=O)O)CC3)CC2)CC1)C(=O)O)C(=O)O [^nat/68Ga-9, metal not drawn]",fraction unbound at 1 h,[1],< 0.05
same,tissue to tissue ratio at 1 h,[2]; Tumor-to-kidney ratio,0.24
same,tissue to tissue ratio at 1 h,[2]; Tumor-to-liver ratio,5.17
same,SUVpeak in the parotid gland,[3],26.7
same,SUVpeak in the submandibular gland,[3],23.5
same,SUVpeak kidneys,[3],33.1
same,"SUVpeak, first target lesion",[3],23.7
same,"SUVpeak, second target lesion",[3],12.8
same,"SUVpeak, third target lesion",[3],10.3
